Measurements from patent US20100047245A1.

Key:
[1] = target: recombinant purified human IL-12 p70 (human) (UniProt P29459); experiment: SPR (BIAcore) per Example 1.1.B, recombinant human IL-12p70
[2] = target: recombinant purified human IL-12 p70 (human) (UniProt P29459); experiment: cell-based or functional assay
[3] = target: recombinant purified human IL-12 p70 (human) (UniProt P29459); experiment: SPR (Biacore) per Example 1.1.B; antigen not restated, taken as human IL-12 p70
[4] = target: recombinant purified human IL-12 p70 (human) (UniProt P29459); experiment: competition ELISA on plate-coated human IL-12; competes 0.8 µg/ml biotinylated 8E1; Expt. 3
[5] = target: recombinant purified human IL-12 p70 (human) (UniProt P29459); experiment: SPR (Biacore 3000), mAb captured via goat anti-mouse IgG Fc, human IL-12 p70 in solution
[6] = target: recombinant purified human IL-12 p70 (human) (UniProt P29459); experiment: SPR (BIAcore) per Example 1.1.B; antigen not restated, taken as human IL-12 p70

recombinant purified human IL-12 p70 (human), sequence (chain, as listed by the source, form in doubt, chain 1 of 2): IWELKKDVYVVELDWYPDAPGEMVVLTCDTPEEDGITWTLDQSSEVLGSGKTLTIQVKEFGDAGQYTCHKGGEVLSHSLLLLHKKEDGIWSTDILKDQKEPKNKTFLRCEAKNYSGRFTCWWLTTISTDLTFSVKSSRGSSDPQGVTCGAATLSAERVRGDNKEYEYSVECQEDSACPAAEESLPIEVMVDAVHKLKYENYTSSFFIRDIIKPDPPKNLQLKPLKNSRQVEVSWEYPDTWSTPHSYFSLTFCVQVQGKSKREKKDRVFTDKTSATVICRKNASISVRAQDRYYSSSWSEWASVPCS
recombinant purified human IL-12 p70 (human), sequence (P29459 23-219, form in doubt, chain 2 of 2): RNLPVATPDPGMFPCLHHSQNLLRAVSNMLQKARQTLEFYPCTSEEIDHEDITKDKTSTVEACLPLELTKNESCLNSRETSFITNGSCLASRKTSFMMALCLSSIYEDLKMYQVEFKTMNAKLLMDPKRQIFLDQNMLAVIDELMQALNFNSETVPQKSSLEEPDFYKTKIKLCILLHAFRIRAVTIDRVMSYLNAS

Av. IC50(nM) huIL-12; PHA blast IFN-gamma induction assay [2]	Kd [5]	koff [5]	kon [5]	Average IC50 (nM) Human IL-12; PHA blast IFN-gamma induction assay [2]	Binder	further results
10 nM					8E1.3 (antibody, human IgG1, kappa, L234A L235A, V domains shown) VH: EVKLVESGGGLVQPGGSLRLSCAASGFTFSDYGMVWVRQAPGKGLEWVASISSGSSNIYYADTVKGRFTISRDDSKNTLYLQMNSLKTEDTAVYYCARNPYWGQGTTVTVSS VL: DIVMTQSPSSLSASVGDRVTITCKASQNVGTNVAWYQQKPEKAPKSLIYSASHRYSGVPSRFSGSGSGTDFTLTISSLQPEDFATYYCQQYNSYPLTFGGGTKVEIKR	Kd [1]: 0.76 nM; koff [1]: 0.001 s⁻¹; kon [1]: 1.3e+06 M⁻¹ s⁻¹
12 nM					8E1.4 (antibody, IgG1, V domains shown) VH: EVQLVESGGGLVQPGGSLRLSCAASGFTFSDYGMVWVRQAPGKGLEWVASISSGSSNIYYADTVKGRFTISRDNAKNTLYLQMNSLRAEDTAVYYCARNPYWGQGTLVTVSS VL: DIQMTQSPSSLSASVGDRVTITCKASQNVGTNVAWYQQKPGKAPKGLIYSASHRYSGVPSRFSGSGSGTDFTLTISSLQPEDFATYYCQQYNSYPLTFGGGTKVEIKR	Kd [3]: 1.3 nM; koff [3]: 0.001 s⁻¹; kon [3]: 800000 M⁻¹ s⁻¹; IC50 [4]: 8.33 µg/mL
	0.27 nM	0.00028 s⁻¹	1.1e+06 M⁻¹ s⁻¹	0.047 nM	7G3 (antibody, V domains shown) VH: EVQLQQSGAEFVRSGASVKLSCTASGLNIKDYYIHWVKQRPEQVLDWIGWIDPENGYSEYAPRFQDKATMTADTSSNTAYLHLSSLTSEDTAVYYCNPGELARYFDYWGQGTTLTVSS VL: DIVLSQSPATLSVTPGDSVSLSCRASQSISKNLHWYQQKSHESPRLLIKYTSQSISGIPSRFSGSGSGTDFTLSINSVETEDFGMYFCQQSISWPLTFGAGTKLELKR	
	0.047 nM	3.8e-05 s⁻¹	820000 M⁻¹ s⁻¹	0.15 nM	3G7 (antibody, V domains shown) VH: QVQLQQSGAELMKPGASVKISCKATGYTFNDYWIEWVKQRPGHGLEWIGGFSHGSGSTNYNEKFKGKATFTADSSSNTAYMQLSSLTSEDSAVYYCARRRFRGMDYWGQGTSVTVSS VL: SIVMTQTPKFLLVSAGDRVTITCKASQSVSNDVAWYQQKPGQSPKLLIYYASNRYTGVPDRFTGSGYGTDFTFTITTVQAEDLAVYFCQQDYSSPWSFGGGTKLEIKR	
	0.1 nM	1.4e-05 s⁻¹	130000 M⁻¹ s⁻¹	0.039 nM	4B4 (antibody, V domains shown) VH: QVTLKESGPGILKPSQTLSLTCSLSGFSLSTSGMGVSWIRQPSGKGLEWLAHIWWDGDSYSNPSLRSRLTISRDTSRNQVFLRIATVDTADTATYYCARRTRVNYAMDYWGQGTSVTVSS VL: SVVMTQTPKFLLVSAGDRVTMTCKASQSVSNDVAWFQQKPGQSPKLLIYYASNRYTGVPDRFTGSGYGTDFTFTISTVQAEDLAVYFCQQDYNSPWTFGGGTKLEIKR	
	4 nM	0.0023 s⁻¹	570000 M⁻¹ s⁻¹	12 nM	5E8 (antibody, V domains shown) VH: QIQLVQSGPELKKPGETVKISCKASGYSFTDYSMHWVKQAPGKGLKWMDWINTETGEPTYADDFKGRFAFSLETSASTAYLQINNLKNEDTATYFCSRRRYRAFDYWGQGTTLTVSS VL: SIVMTQSPKFLLVSAGDRVTITCKASQSVSNDVAWYQQKLGQSPKLLIYYASNRYTGVPDRFTGSGYGTDFTFTINTVQAEDLAVYFCQQDYTSPYTFGGGTKLEIQR	

The next lines start with the binder.

Binder	Av. IC50(nM) huIL-12; PHA blast IFN-gamma induction assay [2]	Kd [5]	koff [5]	kon [5]	Average IC50 (nM) Human IL-12; PHA blast IFN-gamma induction assay [2]	further results
1A6.4 (antibody, human IgG1, V domains shown) VH: QVTLKESGPGILKPSQTLSLTCSFSGFSLSTSGMGVSWIRQPSGKGLEWLAHIWWDGDNYYNPSLKSQLTISKDTSRNQVFLRIATVDTADTATYYCARRTRVNYAMDYWGQGTSVTVSS VL: EIVMTQSPATLSVSPGERATLSCKASQSVSNDVAWYQQKPGQAPRLLIYYASNRYTGIPARFSGSGSGTEFTLTISSLQSEDFAVYYCQQDYNSPWTFGGGTKVEIKR	2.1 nM					Kd [6]: 1 nM; koff [6]: 0.00011 s⁻¹; kon [6]: 110000 M⁻¹ s⁻¹
1A6.9 (antibody, human IgG1, kappa, L234A L235A, V domains shown) VH: EVTLRESGPALVKPTQTLTLTCTFSGFSLSTSGMGVSWIRQPPGKALEWLAHIWWDGDNYYNPSLKSRLTISKDTSKNQVVLTMTNMDPVDTATYYCARRTRVNYAMDYWGQGTTVTVSS VL: SVVMTQSPDSLAVSLGERATINCKASQSVSNDVAWFQQKPGQPPKLLIYYASNRYTGVPDRFSGSGYGTDFTLTISSLQAEDVAVYYCQQDYNSPWTFGGGTKVEIKR	0.15 nM					Kd [1]: < 0.01 nM; koff [1]: < 1e-05 s⁻¹; kon [1]: 350000 M⁻¹ s⁻¹
1A6.12 (antibody, IgG1, V domains shown) VH: EVTLRESGPGLVKPTQTLTLTCTLYGFSLSTSGMGVSWIRQPPGKGLEWLAHIWWDGDNYYNPSLKSQLTISKDTSKNQVVLKLTSVDPVDTATYYCARRTRVNYAMDYWGQGTLVTVSS VL: DIQMTQSPSSLSASVGDRVTITCKASQSVSNDVAWFQQKPGKAPKLLIYYASNRYTGVPDRFSGSGYGTDFTFTISSLQPEDIATYYCQQDYNSPWTFGGGTKVEIKR	0.088 nM					Kd [3]: 0.4 nM; koff [3]: 0.0003 s⁻¹; kon [3]: 740000 M⁻¹ s⁻¹
1A6.10 (antibody, V domains shown) VH: EVTLRESGPGLVKPTQTLTLTCTLYGFSLSTSGMGVSWIRQPPGKGLEWLAHIWWDGDNYYNPSLKSQLTISKDTSKNQVVLKLTSVDPVDTATYYCARRTRVNYAMDYWGQGTLVTVSS VL: DIQMTQSPSSLSASVGDRVTITCKASQSVSNDVAWYQQKPGKAPKLLIYYASNRYTGVPDRFSGSGYGTDFTFTISSLQPEDIATYYCQQDYNSPWTFGGGTKVEIKR	0.15 nM					Kd [3]: 0.024 nM; koff [3]: 7.6e-06 s⁻¹; kon [3]: 320000 M⁻¹ s⁻¹
1D4 (antibody, V domains shown) VH: QVTLKESGPGILQPSQTLSLTCSFSGFSLRKSVMGVSWIRQPSGKGLEWLAHIYWDDDKYYNPSLKSRLTISKDPSRNQVFLKITSVDTADAATYYCTRRGIRSAMDYWGQGTSVTVSS VL: SVVMTQTPKFLLVSAGDRVTITCKASQSVSNDVAWYQQKPGQSPKLLIYYASNRYTGVPDRFTGSGYGTDFTFIISTVRAEDLAVYFCQQDYNSPWTFGGGTKLEIKR		0.12 nM	2.9e-05 s⁻¹	250000 M⁻¹ s⁻¹	0.031 nM	
1H6 (antibody, V domains shown) VH: EVKLVESGGGLVQPGGSRKLSCAASGFTFSDYGMVWVRQAPGKGLEWVAYISSGSSTIHYADTMKGRFTISRDNPKNTLFLQMSSLRSEDTAMYYCARRHYYAMDYWGQGTSVTVSS VL: SFVMTQTPKFLLVSAGDRVTITCKASQSVSNDVAWYQQKPGQSPKLLIYYASNRYTGVPDRFTGTGYGTDFTFTISTVQAEDLAVYFCQQDYTSPFTFGSGTKLEIKR		0.25 nM	9.9e-05 s⁻¹	430000 M⁻¹ s⁻¹	0.69 nM	
1D8 (antibody, V domains shown) VH: QVQLQQSGAELMKPGASVKISCKATGYTFSSYWIEWVKQRPGHGLEWIGDILPGSGSTNYNEKFKDKATFTADTSFNTAYMQLSSLTSEDSAVYYCATRRFRGLDYWGQGTTLTVSS VL: SIVMTQTPKFLLVSAGDRVTITCKASQSVSNDVAWYQQKSGQSPKLLIYYASNRYTGVPDRFTGSGYGTDFTFTISTVQPEDLAVYFCQQDYTSPFTFGSGTKLEIKR		0.044 nM	2.3e-05 s⁻¹	510000 M⁻¹ s⁻¹	0.31 nM	
1A6 (antibody, V domains shown) VH: QVTLKESGPGILKPSQTLSLTCSFSGFSLSTSGMGVSWIRQPSGKGLEWLAHIWWDGDNYYNPSLKSQLTISKDTSRNQVFLRIATVDTADTATYYCARRTRVNYAMDYWGQGTSVTVSS VL: SVVMTQTPKFLLVSAGDRVTITCKASQSVSNDVAWFQQKPGQSPKLLIYYASNRYTGVPDRFTGSGYGTDFTFTISTVQAEDLAVYFCQQDYNSPWTFGGGTKLEIKR		0.23 nM	3.5e-05 s⁻¹	150000 M⁻¹ s⁻¹	0.052 nM	
1D4.4 (antibody, human IgG1, V domains shown) VH: EVTLRESGPALVKPTQTLTLTCTFSGFSLSKSVMGVSWIRQPPGKALEWLAHIYWDDDKYYNPSLKSRLTISKDTSKNQVVLTMTNMDPVDTATYYCARRGIRSAMDYWGQGTTVTVSS VL: SVVMTQTPKFLLVSAGDRVTITCKASQSVSNDVAWYQQKPGQSPKLLIYYASNRYTGVPDRFTGSGYGTDFTFIISTVRAEDLAVYFCQQDYNSPWTFGGGTKLEIKR	0.64 nM					Kd [6]: 0.074 nM; koff [6]: 2.1e-05 s⁻¹; kon [6]: 280000 M⁻¹ s⁻¹
1D4.5 (antibody, human IgG1, V domains shown) VH: QVTLKESGPGILQPSQTLSLTCSFSGFSLRKSVMGVSWIRQPSGKGLEWLAHIYWDDDKYYNPSLKSRLTISKDPSRNQVFLKITSVDTADAATYYCTRRGIRSAMDYWGQGTSVTVSS VL: DIVMTQSPDSLAVSLGERATINCKASQSVSNDVAWYQQKPGQPPKLLIYYASNRYTGVPDRFSGSGSGTDFTLTISSLQAEDVAVYYCQQDYNSPWTFGGGTKVEIKR	0.053 nM					Kd [6]: 0.11 nM; koff [6]: 3.1e-05 s⁻¹; kon [6]: 300000 M⁻¹ s⁻¹
1A6.3 (antibody, human IgG1, V domains shown) VH: EVTLKESGPVLVKPTETLTLTCTVSGFSLSTSGMGVSWIRQPPGKALEWLAHIWWDGDNYYNPSLKSRLTISKDTSKSQVVLTMTNMDPVDTATYYCARRTRVNYAMDYWGQGTTVTVSS VL: SVVMTQTPKFLLVSAGDRVTITCKASQSVSNDVAWFQQKPGQSPKLLIYYASNRYTGVPDRFTGSGYGTDFTFTISTVQAEDLAVYFCQQDYNSPWTFGGGTKLEIKR	0.068 nM					Kd [6]: 0.14 nM; koff [6]: 2.6e-05 s⁻¹; kon [6]: 190000 M⁻¹ s⁻¹
